In experiment [1] the test system is H1975 lung adenocarcinoma cells. Briefly: LDH assay, H1975 cells, 48 hours co-culture with 1 μM Osimeritinib. The following applies: E:T 1:1, 48 hours, CD4+ T cells. Type of experiment: cell-based. From the text: CER30 comprises a Tim4 binding domain, Tim4 transmembrane domain, and an engulfment signaling domain comprising a primary engulfment signaling domain comprising a TRAF2 signaling domain. CER30 has a polypeptide sequence as set forth in SEQ ID NO:96. CER110 has a polypeptide sequence of SEQ ID NO:125 and comprises a Tim4 binding domain, Tim4 transmembrane domain, and an engulfment signaling domain comprising a primary engulfment signaling domain comprising a TRAF6 signaling domain and a secondary engulfment signaling domain comprising a DAP12 signaling domain. CER112 has a polypeptide sequence of SEQ ID NO:128 and comprises a Tim4 binding domain, Tim4 transmembrane domain, and an engulfment signaling domain comprising a primary engulfment signaling domain comprising a TRAF6 signaling domain and a secondary engulfment signaling domain comprising a NFAM1 signaling domain. CER127 has a polypeptide sequence of SEQ ID NO:175 and comprises a Tim4 binding domain, Tim4 transmembrane domain, and an engulfment signaling domain comprising a primary engulfment signaling domain comprising a TRAF2 signaling domain and a secondary engulfment signaling domain comprising a TLR2 signaling domain. H1975 cells are more resistant to EGFR inhibitors, so Osimeritinib was used at slightly higher concentration. H1975 lung adenocarcinoma cells harboring an EGFR mutation were co-cultured with CER-expressing or mock-transduced (vector only) CD4+ T cells with 1 μM of Osimeritinib. After 48 hours of co-culture at a 1:1 effector:target cell ratio, T cells were washed away, and the number of viable H1975 cells was quantified using a calorimetric LDH assay (FIG. 57). Cell viability experiments were performed in triplicate and presented as % of control.

For another experiment, the system named is SCC152 cells. The experiment is described as follows: Phagocytic activity of tandem expression cassette transduced CD8+ T cells. Type of experiment: cell-based, human. How it is done:
Phagocytic activity of tandem expression cassette transduced CD8+ T cells was detected by co-culturing tandem expression cassette transduced CD8+ T cells with SCC152 cells for 6 hours at a 1:1 ratio. Phagocytic events were visualized and quantified using KEYENCE BZ-X710 fluorescence microscope, 20X objective and hybrid capture software.

B1: CER120: Tim4 binding and transmembrane domains, TLR1 primary and DAP12 secondary signaling domains; SEQ ID NO:147 (protein)
chain: MSKGLLLLWLVTELWWLYLTPAASEDTIIGFLGQPVTLPCHYLSWSQSRNSMCWGKGSCPNSKCNAELLRTDGTRIISRKSTKYTLLGKVQFGEVSLTISNTNRGDSGVYCCRIEVPGWFNDVKKNVRLELRRATTTKKPTTTTRPTTTPYVTTTTPELLPTTVMTTSVLPTTTPPQTLATTAFSTAVTTCPSTTPGSFSQETTKGSAFTTESETLPASNHSQRSMMTISTDIAVLRPTGSNPGILPSTSQLTTQKTTLTTSESLQKTTKSHQINSRQTILIIACCVGFVLMVLLFLAFLSYLDLPWYLRMVCQWTQTRRRARNIPLEELQRNLQFHAFISYSGHDSFWVKNELLPNLEKEGMQICLHERNFVPGKSIVENIITCIEKSYKSIFVLSPNFVQSEWCHYELYFAHHNLFHEGSNSLILILLEPIPQYSIPSSYHKLKSLMARRTYLEWPKEKSKRGLFWANLRAAINIKLTEQAKKYFLGRLVPRGRGAAEAATRKQRITETESPYQELQGQRSDVYSDLNTQRPYYK
modifications: CER120 protein
In the case of B1, in experiment [1], the “killing of H1975 cells (LDH)” value is “synergistic killing of H1975 lung adenocarcinoma cells upon EGFR inhibition”.

B2: CER29−HPV16 E7 TCR: tandem expression cassette: CER29, T2A peptide, HPV16 E7 specific TCR; SEQ ID NO:169 (protein)
chain: MSKGLLLLWLVTELWWLYLTPAASEDTIIGFLGQPVTLPCHYLSWSQSRNSMCWGKGSCPNSKCNAELLRTDGTRIISRKSTKYTLLGKVQFGEVSLTISNTNRGDSGVYCCRIEVPGWFNDVKKNVRLELRRATTTKKPTTTTRPTTTPYVTTTTPELLPTTVMTTSVLPTTTPPQTLATTAFSTAVTTCPSTTPGSFSQETTKGSAFTTESETLPASNHSQRSMMTISTDIAVLRPTGSNPGILPSTSQLTTQKTTLTTSESLQKTTKSHQINSRQTILIIACCVGFVLMVLLFLAFLMSLLNCENSCGSSQSESDCCVAMASSCSAVTKDDSVGGTASTGNLSSSFMEEIQGYDVEFDPPLESKYECPICLMALREAVQTPCGHRFCKACIIKSIRDAGHKCPVDNEILLENQLFPDNFAKREILSLMVKCPNEGCLHKMELRHLEDHQAHCEFALMDCPQCQRPFQKFHINIHILKDCPRRQVSCDNCAASMAFEDKEIHDQNCPLANVICEYCNTILIREQMPNHYDLDCPTAPIPCTFSTFGCHEKMQRNHLARHLQENTQSHMRMLALEGGGEGRGSLLTCGDVEENPGPMAPGLLCWALLCLLGAGLVDAGVTQSPTHLIKTRGQQVTLRCSPKSGHDTVSWYQQALGQGPQFIFQYYEEEERQRGNFPDRFSGHQFPNYSSELNVNALLLGDSALYLCASSLGWRGGRYNEQFFGPGTRLTVLEDLRNVTPPKVSLFEPSKAEIANKQKATLVCLARGFFPDHVELSWWVNGKEVHSGVCTDPQAYKESNYSYCLSSRLRVSATFWHNPRNHFRCQVQFHGLSEEDKWPEGSPKPVTQNISAEAWGRADCGITSASYQQGVLSATILYEILLGKATLYAVLVSTLVVMAMVKRKNSRAKRSGSGATNFSLLKQAGDVEENPGPMWGVFLLYVSMKMGGTTGQNIDQPTEMTATEGAIVQINCTYQTSGFNGLFWYQQHAGEAPTFLSYNVLDGLEEKGRFSSFLSRSKGYSYLLLKELQMKDSASYLCASVDGNNRLAFGKGNQVVVIPNIQNPEPAVYQLKDPRSQDSTLCLFTDFDSQINVPKTMESGTFITDKCVLDMKAMDSKSNGAIAWSNQTSFTCQDIFKETNATYPSSDVPCDATLTEKSFETDMNLNFQNLLVIVLRILLLKVAGFNLLMTLRLWSS
modifications: CER29_T2A_HPV16_E7_TCR tandem cassette
As for B2, in the experiment on SCC152 cells (CD8+ T cells, 6 hours, 1:1 ratio), the “phagocytosis of SCC152 cells” value is listed as “capable of phagocytosing SCC152 cells”. Also, in the experiment with SCC152 cells (Racl inhibitor NSC23766 (50 μM), data not shown), the “dependence of engulfment of SCC152 cells on Racl” value is recorded as “Racl-dependent manner”.

B3: CER110: Tim4 binding and transmembrane domains, truncated Traf6 primary and DAP12 secondary signaling domains; SEQ ID NO:125 (protein)
chain: MSKGLLLLWLVTELWWLYLTPAASEDTIIGFLGQPVTLPCHYLSWSQSRNSMCWGKGSCPNSKCNAELLRTDGTRIISRKSTKYTLLGKVQFGEVSLTISNTNRGDSGVYCCRIEVPGWFNDVKKNVRLELRRATTTKKPTTTTRPTTTPYVTTTTPELLPTTVMTTSVLPTTTPPQTLATTAFSTAVTTCPSTTPGSFSQETTKGSAFTTESETLPASNHSQRSMMTISTDIAVLRPTGSNPGILPSTSQLTTQKTTLTTSESLQKTTKSHQINSRQTILIIACCVGFVLMVLLFLAFLMSLLNCENSCGSSQSESDCCVAMASSCSAVTKDDSVGGTASTGNLSSSFMEEIQGYDVEFDPPLESKYECPICLMALREAVQTPCGHRFCKACIIKSIRDAGHKCPVDNEILLENQLFPDNFAKREILSLMVKCPNEGCLHKMELRHLEDHQAHCEFALMDCPQCQRPFQKFHINIHILKDCPRRQVSCDNCAASMAFEDKEIHDQNCPLANVICEYCNTILIREQMPNHYDLDCPTAPIPCTFSTFGCHEKMQRNHLARHLQENTQSHMRMLAYFLGRLVPRGRGAAEAATRKQRITETESPYQELQGQRSDVYSDLNTQRPYYK
modifications: CER110 chimeric engulfment receptor
Turning to B3, in experiment [1], the “killing of H1975 cells (LDH)” value was “synergistic killing of H1975 lung adenocarcinoma cells upon EGFR inhibition”.

B4: CER112: Tim4 binding and transmembrane domains, truncated Traf6 primary and NFAM1 secondary signaling domains; SEQ ID NO:128 (protein)
chain: MSKGLLLLWLVTELWWLYLTPAASEDTIIGFLGQPVTLPCHYLSWSQSRNSMCWGKGSCPNSKCNAELLRTDGTRIISRKSTKYTLLGKVQFGEVSLTISNTNRGDSGVYCCRIEVPGWFNDVKKNVRLELRRATTTKKPTTTTRPTTTPYVTTTTPELLPTTVMTTSVLPTTTPPQTLATTAFSTAVTTCPSTTPGSFSQETTKGSAFTTESETLPASNHSQRSMMTISTDIAVLRPTGSNPGILPSTSQLTTQKTTLTTSESLQKTTKSHQINSRQTILIIACCVGFVLMVLLFLAFLMSLLNCENSCGSSQSESDCCVAMASSCSAVTKDDSVGGTASTGNLSSSFMEEIQGYDVEFDPPLESKYECPICLMALREAVQTPCGHRFCKACIIKSIRDAGHKCPVDNEILLENQLFPDNFAKREILSLMVKCPNEGCLHKMELRHLEDHQAHCEFALMDCPQCQRPFQKFHINIHILKDCPRRQVSCDNCAASMAFEDKEIHDQNCPLANVICEYCNTILIREQMPNHYDLDCPTAPIPCTFSTFGCHEKMQRNHLARHLQENTQSHMRMLALWNKKRMRGPGKDPTRKCPDPRSASSPKQHPSESVYTALQRRETEVYACIENEDGSSPTAKQSPLSQERPHRFEDDGELNLVYENL
modifications: CER112 chimeric engulfment receptor
For B4, the “killing of H1975 cells (LDH)” value in experiment [1] is listed as “synergistic killing of H1975 lung adenocarcinoma cells upon EGFR inhibition”.

These data come from patent US11708423B2, “Chimeric engulfment receptor molecules and methods of use” (CERO THERAPEUTICS, INC., priority 2017, dated 2023).
